Measured values from US12467053 (BIOMOLECULAR, dated 2025).

Experiments:
TNF-alpha (R&D Systems) [1] = biological target: T1, TNF-alpha (R&D Systems) (UniProt P01375 77-233); assay: Biacore T-100 SPR, response against TNF-alpha concentration. Symmetroadhesin amine-coupled to a CM-5 chip.
T1 construct: also called tumor necrosis factor α; TNF-α

TNF-alpha (R&D Systems) [2] = biological target: T1, TNF-alpha (R&D Systems); assay: Biacore T-100 SPR, response against TNF-alpha concentration. Symmetroadhesin thiol-coupled to a CM-5 chip.

T1 sequence (P01375 77-233 limits assumed): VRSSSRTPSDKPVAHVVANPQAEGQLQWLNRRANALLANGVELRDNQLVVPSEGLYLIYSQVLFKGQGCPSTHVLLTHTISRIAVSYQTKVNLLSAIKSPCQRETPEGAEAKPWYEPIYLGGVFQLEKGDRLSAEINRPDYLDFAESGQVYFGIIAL

EC50 (read off the curve) (TNF-alpha (R&D Systems) [1]): ~4 nM
EC50 (read off the curve) (TNF-alpha (R&D Systems) [2]): ~0.9 nM
B1: TNR1B symmetroadhesin of FIG. 44A (iv) (human TNR1B extracellular domain with a C-terminal-X-terminus) (receptor)
chain: LPAQVAFTPYAPEPGSTCRLREYYDQTAQMCCSKCSPGQHAKVFCTKTSDTVCDSCEDSTYTQLWNWVPECLSCGSRCSSDQVETQACTREQNRICTCRPGWYCALSKQEGCRLCAPLRKCRPGFGVARPGTETSDVVCKPCAPGTFSNTTSSTDICRPHQICNVVAIPGNASMDAVCTSTSPTRSMAPGAVHLPQPVSTRSQHTQPTPEPSTAPSTSFLLPMGPSPPAEGSTGDGC
modifications: C-terminal X residue (residue 237) added by native chemical ligation; cysteine in the material made (cleavage/elution with cysteine)
notes: The same molecule was immobilised by amine chemistry and by thiol chemistry; also called TNR1B-X; TNR2-X
